Laboratory results from publication PMC10637973 (The Journal of Biological Chemistry, 2023).

B1: USP11-D1D2 (enzyme, human)
chain: MSEEDEDFKGQPGICGLTNLGNTCFMNSALQCLSNVPQLTEYFLNNCYLEELNFRNPLGMKGEIAEAYADLVKQAWSGHHRSIVPHVFKNKVGHFASQFLGYQQHDSQELLSFLLDGLHEDLNRVKKKEYVELCDAAGRPDQEVAQEAWQNHKRRNDSVIVDTFHGLFKSTLVCPDCGNVSVTFDPFCYLSVPLPASTSKPVRLQECIELFTTVETLEKENPWYCPSCKQHQLATKKLDLWMLPEILIIHLKRFSYTKFSREKLDTLVEFPIRDLDFSEFVIQPQNESNPELYKYDLIAVSNHYGGMRDGHYTTFACNKDSGQWHYFDDNSVSPVNENQIESKAAYVLFYQRQDVARRLL
notes: USP11, human, catalytic subdomain D1, residues Met295-Pro489; numbering of UniProt P51784; linker that replaces the insertion between subdomains D1 and D2; USP11, human, catalytic subdomain D2, residues Pro778-Leu937; also called USP11 catalytic core; USP11 catalytic domain; source: E. coli BL21(DE3)-Codon Plus, purified (Ni2+ HiTrap chelating column, SEC Superdex 200); not shown: His tag (from …)
B2: USP11-D1D2 C318S/D886G (enzyme, human)
chain: MSEEDEDFKGQPGICGLTNLGNTSFMNSALQCLSNVPQLTEYFLNNCYLEELNFRNPLGMKGEIAEAYADLVKQAWSGHHRSIVPHVFKNKVGHFASQFLGYQQHDSQELLSFLLDGLHEDLNRVKKKEYVELCDAAGRPDQEVAQEAWQNHKRRNDSVIVDTFHGLFKSTLVCPDCGNVSVTFDPFCYLSVPLPASTSKPVRLQECIELFTTVETLEKENPWYCPSCKQHQLATKKLDLWMLPEILIIHLKRFSYTKFSREKLDTLVEFPIRDLDFSEFVIQPQNESNPELYKYDLIAVSNHYGGMRGGHYTTFACNKDSGQWHYFDDNSVSPVNENQIESKAAYVLFYQRQDVARRLL
notes: USP11, human, catalytic subdomain D1, residues Met295-Pro489; numbering of UniProt P51784; linker that replaces the insertion between subdomains D1 and D2; USP11, human, catalytic subdomain D2, residues Pro778-Leu937; Made from the USP11-D1D2 C318S template; source: E. coli BL21(DE3)-Codon Plus, purified (Ni2+ HiTrap chelating column, SEC Superdex 200); not shown: His tag (from the Ni2+ chelating …)
B3: USP11-D1D2 R885G (enzyme, human)
chain: MSEEDEDFKGQPGICGLTNLGNTCFMNSALQCLSNVPQLTEYFLNNCYLEELNFRNPLGMKGEIAEAYADLVKQAWSGHHRSIVPHVFKNKVGHFASQFLGYQQHDSQELLSFLLDGLHEDLNRVKKKEYVELCDAAGRPDQEVAQEAWQNHKRRNDSVIVDTFHGLFKSTLVCPDCGNVSVTFDPFCYLSVPLPASTSKPVRLQECIELFTTVETLEKENPWYCPSCKQHQLATKKLDLWMLPEILIIHLKRFSYTKFSREKLDTLVEFPIRDLDFSEFVIQPQNESNPELYKYDLIAVSNHYGGMGDGHYTTFACNKDSGQWHYFDDNSVSPVNENQIESKAAYVLFYQRQDVARRLL
notes: USP11, human, catalytic subdomain D1, residues Met295-Pro489; numbering of UniProt P51784; linker that replaces the insertion between subdomains D1 and D2; USP11, human, catalytic subdomain D2, residues Pro778-Leu937; source: E. coli BL21(DE3)-Codon Plus, purified (Ni2+ HiTrap chelating column, SEC Superdex 200); not shown: His tag (from the Ni2+ chelating column)
B4: USP11-D1D2 H399Q (enzyme, human)
chain: MSEEDEDFKGQPGICGLTNLGNTCFMNSALQCLSNVPQLTEYFLNNCYLEELNFRNPLGMKGEIAEAYADLVKQAWSGHHRSIVPHVFKNKVGHFASQFLGYQQQDSQELLSFLLDGLHEDLNRVKKKEYVELCDAAGRPDQEVAQEAWQNHKRRNDSVIVDTFHGLFKSTLVCPDCGNVSVTFDPFCYLSVPLPASTSKPVRLQECIELFTTVETLEKENPWYCPSCKQHQLATKKLDLWMLPEILIIHLKRFSYTKFSREKLDTLVEFPIRDLDFSEFVIQPQNESNPELYKYDLIAVSNHYGGMRDGHYTTFACNKDSGQWHYFDDNSVSPVNENQIESKAAYVLFYQRQDVARRLL
notes: as for B3

Key:
[1] = molecular target: T1, mono-ubiquitin (UniProt P0CG47 1-76); experiment: ITC; ubiquitin samples (200–500 μM) titrated into USP11 samples (20–30 μM); 50 mM Tris-Cl, pH 7.5, 150 mM NaCl, 1% (v/v) glycerol; 25 °C; one-site binding model; conditions: both partners purified
T1 construct: ubiquitin (the reaction product, residues 1-76); also called product ubiquitin; source: E. coli BL21(DE3)-Codon Plus; purification of the ubiquitin constructs not described

[2] = molecular target: T2, linear diubiquitin (UniProt P0CG47 1-76; P0CG47 1-76); experiment: as above; conditions: both partners purified
T2 construct: ubiquitin, distal moiety (residues 1-76); ubiquitin, proximal moiety, its Met1 (Met77 of the chain) joined by a peptide bond to Gly76 of the distal moiety; source: E. coli BL21(DE3)-Codon Plus; purification of the ubiquitin constructs not described

Binder | Kd [1] [µM] | binding result [2]
B1 | ~3.5 | –
B2 | – | binds
B3 | 1.1 | –
B4 | ~2 | –
